Test results taken from publication PMC11301063, “The Musashi-1–type 2 deiodinase pathway regulates astrocyte proliferation”.

Columns and labels:
[1] = target: T1, Musashi-1 (MSI1) (Mus musculus (mouse), UniProt Q61474 1-362); experiment: EMSA; 1 ug protein incomplete shift (two bands), 1.5 ug complete shift of 80 fmol probe; REMSA 1x binding buffer (LightShift kit), 0.125 mg/ml BSA, 80 fmol RNA, 1.5 ug protein, 20 ul, 20 min at RT; native 6% PAGE in 0.5x TBE pH 7.5 at 4 C; protein dialyzed in 20 mM TBE, 5 mM DTT; settings: protein: recombinant; tags: His tag; label: 3' biotin; single strand
[2] = target: T1, Musashi-1 (MSI1); experiment: competition; free probe restored at 1250x (100 pmol) unlabeled RNA; 1.5 ug protein, 80 fmol labeled N1; REMSA 1x binding buffer (LightShift kit), 0.125 mg/ml BSA, 80 fmol RNA, 1.5 ug protein, 20 ul, 20 min at RT; native 6% PAGE in 0.5x TBE pH 7.5 at 4 C; protein dialyzed in 20 mM TBE, 5 mM DTT; settings: protein: recombinant; tags: His tag; label: none; single strand

T1 sequence (Q61474 whole entry): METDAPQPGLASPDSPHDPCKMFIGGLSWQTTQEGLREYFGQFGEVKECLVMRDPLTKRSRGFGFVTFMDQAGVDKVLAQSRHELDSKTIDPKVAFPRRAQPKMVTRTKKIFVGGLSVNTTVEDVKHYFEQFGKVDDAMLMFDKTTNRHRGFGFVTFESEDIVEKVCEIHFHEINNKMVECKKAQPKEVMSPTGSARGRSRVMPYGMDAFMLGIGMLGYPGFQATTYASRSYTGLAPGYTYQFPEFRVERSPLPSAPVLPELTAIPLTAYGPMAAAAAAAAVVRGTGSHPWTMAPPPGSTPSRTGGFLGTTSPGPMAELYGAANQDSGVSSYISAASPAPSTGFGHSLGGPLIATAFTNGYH

B1: cDio2 3'UTR RNA probe nt 2582-2625 (ssRNA)
RNA: GUUUAUAGCUAGAUUAGUUUAGCUGAAAGUUAAGUAGUUUGCAA
B1: binds [1].

B2: unlabeled cDio2 3'UTR RNA competitor (ssRNA)
RNA: B1 RNA
B2: binds [2].
